Assay results as given in CN115368447A (HEFEI TIANGANG IMMUNOLOGY PHARMACEUTICAL CO LTD, dated 2022).

Columns and labels:
[1] = target: T1, Nectin-4蛋白 (SEQ ID NO:29), expressed on CHO-K1-Nectin-4 cells and A375-Nectin-4 cells (Homo sapiens (Human), UniProt Q96NY8 32-510); assay: flow cytometry on CHO-K1-Nectin-4 cells, Alexa-647 anti-human Fc
T1 construct: expressed by lentiviral transduction; also called CHO-K1-Nectin-4细胞; A375-Nectin-4细胞
T1 sequence: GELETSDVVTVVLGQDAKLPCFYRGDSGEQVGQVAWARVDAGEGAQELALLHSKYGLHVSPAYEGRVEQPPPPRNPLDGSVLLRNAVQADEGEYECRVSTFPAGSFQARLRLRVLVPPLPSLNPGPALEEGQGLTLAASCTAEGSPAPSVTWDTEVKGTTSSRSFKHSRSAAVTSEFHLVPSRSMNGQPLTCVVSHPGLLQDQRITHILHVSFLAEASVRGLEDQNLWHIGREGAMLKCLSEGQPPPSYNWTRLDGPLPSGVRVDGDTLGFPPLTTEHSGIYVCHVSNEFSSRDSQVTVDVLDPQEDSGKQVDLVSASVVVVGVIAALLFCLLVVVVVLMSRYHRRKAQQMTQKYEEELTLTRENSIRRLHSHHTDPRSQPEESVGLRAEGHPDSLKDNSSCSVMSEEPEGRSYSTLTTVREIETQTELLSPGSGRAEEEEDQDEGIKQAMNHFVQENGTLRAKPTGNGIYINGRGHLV

[2] = target: T2, 4-1BB蛋白 (SEQ ID NO:27), expressed on CHO-K1-4-1BB cells and Jurkat-NFAT-lucia-4-1BB cells (Homo sapiens (Human), UniProt Q07011 24-255); assay: flow cytometry on CHO-K1-4-1BB cells, Alexa-647 anti-human Fc
T2 construct: expressed by lentiviral transduction; also called CHO-K1-4-1BB细胞; Jurkat-NFAT-lucia-4-1BB细胞
T2 sequence (Q07011 24-255 limits assumed): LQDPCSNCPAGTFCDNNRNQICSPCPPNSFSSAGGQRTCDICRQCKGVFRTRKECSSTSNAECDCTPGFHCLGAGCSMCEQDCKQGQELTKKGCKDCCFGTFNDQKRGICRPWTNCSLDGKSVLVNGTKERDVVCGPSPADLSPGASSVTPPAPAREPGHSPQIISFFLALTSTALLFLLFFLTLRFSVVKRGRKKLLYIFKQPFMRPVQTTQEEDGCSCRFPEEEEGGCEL

4-1BB-strep tagII蛋白 = target: T3, 4-1BB-strep tagII蛋白 (Homo sapiens (Human), UniProt Q07011 24-186); assay: ELISA, 4-1BB-strep tagII coated at 2 ug/mL, HRP anti-human IgG, OD450
T3 construct: Soluble 4-1BB with C-terminal strep tag II, made in house; Coated on the ELISA plate at 2 ug/mL; also called 4-1BB蛋白

binding result [1]: binds
binding result [2]: binds
binding result (4-1BB-strep tagII蛋白): binds
B1: 抗体4-1BB×Nectin-4 (bispecific antibody, human IgG1, kappa, L234A L235A)
scFv: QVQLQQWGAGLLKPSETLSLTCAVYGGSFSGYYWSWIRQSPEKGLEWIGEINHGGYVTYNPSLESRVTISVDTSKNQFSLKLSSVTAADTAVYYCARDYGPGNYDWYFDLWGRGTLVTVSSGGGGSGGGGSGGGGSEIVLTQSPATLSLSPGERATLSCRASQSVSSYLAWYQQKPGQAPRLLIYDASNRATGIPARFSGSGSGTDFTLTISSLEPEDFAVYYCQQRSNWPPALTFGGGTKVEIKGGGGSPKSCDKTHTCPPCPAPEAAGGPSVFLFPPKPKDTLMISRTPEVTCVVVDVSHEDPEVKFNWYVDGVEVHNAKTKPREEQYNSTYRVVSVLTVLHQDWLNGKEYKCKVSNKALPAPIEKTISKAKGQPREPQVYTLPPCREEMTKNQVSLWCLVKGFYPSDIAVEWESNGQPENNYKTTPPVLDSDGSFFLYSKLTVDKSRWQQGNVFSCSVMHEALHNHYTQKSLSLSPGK
heavy: EVQLVESGGGLVQPGGSLRLSCAASGFTFSSYNMNWVRQAPGKGLEWVSYISSSSSTIYYADSVKGRFTISRDNAKNSLSLQMNSLRDEDTAVYYCARAYYYGMDVWGQGTTVTVSSASTKGPSVFPLAPSSKSTSGGTAALGCLVKDYFPEPVTVSWNSGALTSGVHTFPAVLQSSGLYSLSSVVTVPSSSLGTQTYICNVNHKPSNTKVDKKVEPKSCDKTHTCPPCPAPEAAGGPSVFLFPPKPKDTLMISRTPEVTCVVVDVSHEDPEVKFNWYVDGVEVHNAKTKPREEQYNSTYRVVSVLTVLHQDWLNGKEYKCKVSNKALPAPIEKTISKAKGQPREPQVCTLPPSREEMTKNQVSLSCAVKGFYPSDIAVEWESNGQPENNYKTTPPVLDSDGSFFLVSKLTVDKSRWQQGNVFSCSVMHEALHNHYTQKSLSLSPGK
light: DIQMTQSPSSVSASVGDRVTITCRASQGISGWLAWYQQKPGKAPKFLIYAASTLQSGVPSRFSGSGSGTDFTLTISSLQPEDFATYYCQQANSFPPTFGGGTKVEIKRTVAAPSVFIFPPSDEQLKSGTASVVCLLNNFYPREAKVQWKVDNALQSGNSQESVTEQDSKDSTYSLSSTLTLSKADYEKHKVYACEVTHQGLSSPVTKSFNRGEC
notes: Three chains: anti-4-1BB scFv-Fc (knob); human IgG1 Fc with L234A/L235A already contained in the entries; Produced in ExpiCHO, Protein A purified; also called 4-1BB×Nectin-4抗体; 4-1BB×Nectin-4双特异抗体
